Test results from EP3628678A1 (Ecole Polytechnique Federale De Lausanne (EPFL) EPFL-TTO, dated 2020).

Biological target: RSVF on RSV A2 strain carrying a luciferase gene (RSV-Luc) (RSV A2 strain, UniProt P03420 26-574)
Experiment: cell-based or functional assay

Sequence of RSVF on RSV A2 strain carrying a luciferase gene (RSV-Luc) (P03420 26-574): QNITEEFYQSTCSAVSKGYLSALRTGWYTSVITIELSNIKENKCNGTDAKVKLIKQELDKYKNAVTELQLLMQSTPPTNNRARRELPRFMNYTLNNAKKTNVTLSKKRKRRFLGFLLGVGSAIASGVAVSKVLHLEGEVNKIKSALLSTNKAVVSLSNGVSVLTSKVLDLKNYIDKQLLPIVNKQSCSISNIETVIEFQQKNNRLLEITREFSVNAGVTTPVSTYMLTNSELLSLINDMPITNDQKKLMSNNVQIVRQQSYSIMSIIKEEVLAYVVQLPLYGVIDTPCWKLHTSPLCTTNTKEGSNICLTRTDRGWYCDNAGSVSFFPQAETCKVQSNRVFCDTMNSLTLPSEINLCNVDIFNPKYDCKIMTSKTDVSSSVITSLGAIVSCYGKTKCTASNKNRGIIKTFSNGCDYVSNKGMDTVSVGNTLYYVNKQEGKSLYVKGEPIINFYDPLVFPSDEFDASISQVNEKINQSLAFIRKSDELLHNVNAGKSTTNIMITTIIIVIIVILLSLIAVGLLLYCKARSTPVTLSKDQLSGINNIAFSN

B1: Palivizumab (antibody, V domains shown)
VH: QVTLRESGPALVKPTQTLTLTCTFSGFSLSTSGMSVGWIRQPPGKALEWLADIWWDDKKDYNPSLKSRLTISKDTSKNQVVLKVTNMDPADTATYYCARSMITNWYFDVWGAGTTVTVSS
VL: DIQMTQSPSTLSASVGDRVTITCKCQLSVGYMHWYQQKPGKAPKLLIYDTSKLASGVPSRFSGSGSGTEFTLTISSLQPDDFATYYCFQGSGYPFTFGGGTKLEIK
**Q.** For B1, which “RSV neutralization IC50 (luciferase signal of RSV-Luc on HepG2 cells)” value is on record?
**A.** Its value is 0.32 µg/mL.
